Test results taken from the MegaScale stability set (Tsuboyama et al. 2023).

B1: HEEH_KT_rd6_0790 (parent)
chain: SEEEEEEWRRAKERGEEIIILGILWKPNDEEAERRIKEALRRV

Variants of: B1
Test: folding stability dG (cDNA display proteolysis); higher = more stable
Details: PBS, room temperature

Variant | folding stability dG [kcal/mol]
SEEEEEEWRRAKERGEECIILGILWKPNDEEAERRIKEALRRV [I18C] | 2.38
SEEEEEEWRRAKERGEEYIILGILWKPNDEEAERRIKEALRRV [I18Y] | 1.86
SEEEEEEWRRAKERGEEWIILGILWKPNDEEAERRIKEALRRV [I18W] | 1.67
SEEEEEEWRRAKERGEEAIILGILWKPNDEEAERRIKEALRRV [I18A] | 1.59
SEEEEEEWRRAKERGEEQIILGILWKPNDEEAERRIKEALRRV [I18Q] | 1.3
SEEEEEEWRRAKERGEEKIILGILWKPNDEEAERRIKEALRRV [I18K] | 1.68
SEEEEEEWRRAKERGEEEIILGILWKPNDEEAERRIKEALRRV [I18E] | 0.975
SEEEEEEWRRAKERGEEMIILGILWKPNDEEAERRIKEALRRV [I18M] | 1.42
SEEEEEEWRRAKERGEELIILGILWKPNDEEAERRIKEALRRV [I18L] | 1.39
SEEEEEEWRRAKERGEEHIILGILWKPNDEEAERRIKEALRRV [I18H] | 1.29
SEEEEEEWRRAKERGEENIILGILWKPNDEEAERRIKEALRRV [I18N] | 1.06
SEEEEEEWRRAKERGEEGIILGILWKPNDEEAERRIKEALRRV [I18G] | 0.605
SEEEEEEWRRAKERGEEDIILGILWKPNDEEAERRIKEALRRV [I18D] | 0.812
SEEEEEEWRRAKERGEESIILGILWKPNDEEAERRIKEALRRV [I18S] | 1.17
SEEEEEEWRRAKERGEERIILGILWKPNDEEAERRIKEALRRV [I18R] | 1.3
SEEEEEEWRRAKERGEEPIILGILWKPNDEEAERRIKEALRRV [I18P] | 0.472
SEEEEEEWRRAKERGEEVIILGILWKPNDEEAERRIKEALRRV [I18V] | 2.15
SEEEEEEWRRAKERGEEFIILGILWKPNDEEAERRIKEALRRV [I18F] | 2.1
SEEEEEEWRRAKERGEETIILGILWKPNDEEAERRIKEALRRV [I18T] | 1.84
SEEEEEEWRRAKERTEEIIILGILWKPNDEEAERRIKEALRRV [G15T] | 1.18

Variant | folding stability dG [kcal/mol]
SEEEEEEWRRAKERIEEIIILGILWKPNDEEAERRIKEALRRV [G15I] | 1.34
SEEEEEEWRRAKERFEEIIILGILWKPNDEEAERRIKEALRRV [G15F] | 1.57
SEEEEEEWRRAKERHEEIIILGILWKPNDEEAERRIKEALRRV [G15H] | 1.53
SEEEEEEWRRAKERWEEIIILGILWKPNDEEAERRIKEALRRV [G15W] | 1.68
SEEEEEEWRRAKERQEEIIILGILWKPNDEEAERRIKEALRRV [G15Q] | 1.81
SEEEEEEWRRAKERREEIIILGILWKPNDEEAERRIKEALRRV [G15R] | 1.66
SEEEEEEWRRAKEREEEIIILGILWKPNDEEAERRIKEALRRV [G15E] | 1.5
SEEEEEEWRRAKERNEEIIILGILWKPNDEEAERRIKEALRRV [G15N] | 1.9
SEEEEEEWRRAKERLEEIIILGILWKPNDEEAERRIKEALRRV [G15L] | 1.6
SEEEEEEWRRAKERKEEIIILGILWKPNDEEAERRIKEALRRV [G15K] | 1.6
SEEEEEEWRRAKERSEEIIILGILWKPNDEEAERRIKEALRRV [G15S] | 1.61
SEEEEEEWRRAKERMEEIIILGILWKPNDEEAERRIKEALRRV [G15M] | 1.66
SEEEEEEWRRAKERYEEIIILGILWKPNDEEAERRIKEALRRV [G15Y] | 1.44
SEEEEEEWRRAKERVEEIIILGILWKPNDEEAERRIKEALRRV [G15V] | 1.32
SEEEEEEWRRAKERPEEIIILGILWKPNDEEAERRIKEALRRV [G15P] | 1.03
SEEEEEEWRRAKERGECIIILGILWKPNDEEAERRIKEALRRV [E17C] | 2.35
SEEEEEEWRRAKERGEMIIILGILWKPNDEEAERRIKEALRRV [E17M] | 2.02
SEEEEEEWRRAKERGEKIIILGILWKPNDEEAERRIKEALRRV [E17K] | 1.74
SEEEEEEWRRAKERGETIIILGILWKPNDEEAERRIKEALRRV [E17T] | 2.16
SEEEEEEWRRAKERGEIIIILGILWKPNDEEAERRIKEALRRV [E17I] | 1.94

Variant | folding stability dG [kcal/mol]
SEEEEEEWRRAKERGEAIIILGILWKPNDEEAERRIKEALRRV [E17A] | 2.12
SEEEEEEWRRAKERGEHIIILGILWKPNDEEAERRIKEALRRV [E17H] | 1.89
SEEEEEEWRRAKERGEYIIILGILWKPNDEEAERRIKEALRRV [E17Y] | 1.91
SEEEEEEWRRAKERGELIIILGILWKPNDEEAERRIKEALRRV [E17L] | 1.89
SEEEEEEWRRAKERGESIIILGILWKPNDEEAERRIKEALRRV [E17S] | 2.18
SEEEEEEWRRAKERGEQIIILGILWKPNDEEAERRIKEALRRV [E17Q] | 2.02
SEEEEEEWRRAKERGEWIIILGILWKPNDEEAERRIKEALRRV [E17W] | 2.29
SEEEEEEWRRAKERGEVIIILGILWKPNDEEAERRIKEALRRV [E17V] | 2.08
SEEEEEEWRRAKERGEDIIILGILWKPNDEEAERRIKEALRRV [E17D] | 1.81
SEEEEEEWRRAKERGENIIILGILWKPNDEEAERRIKEALRRV [E17N] | 1.95
SEEEEEEWRRAKERGERIIILGILWKPNDEEAERRIKEALRRV [E17R] | 1.7
SEEEEEEWRRAKERGEGIIILGILWKPNDEEAERRIKEALRRV [E17G] | 1.53
SEEEEEEWRRAKERGEFIIILGILWKPNDEEAERRIKEALRRV [E17F] | 1.92
SEEEEEEWRRAKERGEPIIILGILWKPNDEEAERRIKEALRRV [E17P] | 2.5
SEEEEEEWRRAKERGEEIIIMGILWKPNDEEAERRIKEALRRV [L21M] | 2.35
SEEEEEEWRRAKERGEEIIIAGILWKPNDEEAERRIKEALRRV [L21A] | 1.84
SEEEEEEWRRAKERGEEIIIFGILWKPNDEEAERRIKEALRRV [L21F] | 1.97
SEEEEEEWRRAKERGEEIIIIGILWKPNDEEAERRIKEALRRV [L21I] | 1.47
SEEEEEEWRRAKERGEEIIIKGILWKPNDEEAERRIKEALRRV [L21K] | 1.66
